# The supplement of paper PMC10065799, “High-throughput profiling of sequence recognition by tyrosine kinases and SH2 domains using bacterial peptide display” (eLife, 2023)
# What was measured:
# [1] = biological target: FGFR1 (UniProt P11362); assay: phosphorylation enrichment, bacterial display (enrichment ratio); higher = better substrate or ligand; peptides without Tyr show the background
# [2] = system: Fer (mouse); assay: as above
# [3] = biological target: Fyn (UniProt P06241); assay: as above
# [4] = system: AncSZ; assay: as above
# [5] = system: c-Src; assay: as above
# [6] = biological target: EPHB1 (UniProt P54762); assay: as above
# [7] = biological target: MERTK (UniProt Q12866); assay: as above
# [8] = biological target: Jak2 (UniProt O60674); assay: as above
# [9] = biological target: Hck (UniProt P08631); assay: as above
# [10] = system: c-Abl (mouse); assay: as above
# [11] = biological target: Fes (UniProt P07332); assay: as above
# [12] = biological target: EPHB2 (UniProt P29323); assay: as above
# [13] = biological target: FGFR3 (UniProt P22607); assay: as above
# [14] = biological target: Grb2 SH2 (UniProt P62993); assay: SH2 binding enrichment of the phosphorylated peptide, bacterial display (enrichment ratio); higher = better substrate or ligand; peptides without Tyr show the background
# [15] = biological target: c-Src SH2; assay: as above
# [16] = biological target: SHP2-C SH2; assay: as above
# 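Throughout, for SH2 binding enrichment of the phosphorylated peptide, bacterial display: peptide library displayed on the E. coli surface as eCPX fusions, selected cells deep-sequenced, score is each peptide's frequency after selection divided by its frequency in the input.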
# 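Throughout, for phosphorylation enrichment, bacterial display: 11-residue human phosphosite peptides and single-mutation variants displayed on the E. coli surface, counted by deep sequencing, each peptide's frequency after selection divided by its frequency in the unselected input library; frequency after pTyr selection over input frequency; kinase dosed for 20-30% of maximal phosphorylation in three min.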
# Jak2, sequence (O60674 whole entry, looked up): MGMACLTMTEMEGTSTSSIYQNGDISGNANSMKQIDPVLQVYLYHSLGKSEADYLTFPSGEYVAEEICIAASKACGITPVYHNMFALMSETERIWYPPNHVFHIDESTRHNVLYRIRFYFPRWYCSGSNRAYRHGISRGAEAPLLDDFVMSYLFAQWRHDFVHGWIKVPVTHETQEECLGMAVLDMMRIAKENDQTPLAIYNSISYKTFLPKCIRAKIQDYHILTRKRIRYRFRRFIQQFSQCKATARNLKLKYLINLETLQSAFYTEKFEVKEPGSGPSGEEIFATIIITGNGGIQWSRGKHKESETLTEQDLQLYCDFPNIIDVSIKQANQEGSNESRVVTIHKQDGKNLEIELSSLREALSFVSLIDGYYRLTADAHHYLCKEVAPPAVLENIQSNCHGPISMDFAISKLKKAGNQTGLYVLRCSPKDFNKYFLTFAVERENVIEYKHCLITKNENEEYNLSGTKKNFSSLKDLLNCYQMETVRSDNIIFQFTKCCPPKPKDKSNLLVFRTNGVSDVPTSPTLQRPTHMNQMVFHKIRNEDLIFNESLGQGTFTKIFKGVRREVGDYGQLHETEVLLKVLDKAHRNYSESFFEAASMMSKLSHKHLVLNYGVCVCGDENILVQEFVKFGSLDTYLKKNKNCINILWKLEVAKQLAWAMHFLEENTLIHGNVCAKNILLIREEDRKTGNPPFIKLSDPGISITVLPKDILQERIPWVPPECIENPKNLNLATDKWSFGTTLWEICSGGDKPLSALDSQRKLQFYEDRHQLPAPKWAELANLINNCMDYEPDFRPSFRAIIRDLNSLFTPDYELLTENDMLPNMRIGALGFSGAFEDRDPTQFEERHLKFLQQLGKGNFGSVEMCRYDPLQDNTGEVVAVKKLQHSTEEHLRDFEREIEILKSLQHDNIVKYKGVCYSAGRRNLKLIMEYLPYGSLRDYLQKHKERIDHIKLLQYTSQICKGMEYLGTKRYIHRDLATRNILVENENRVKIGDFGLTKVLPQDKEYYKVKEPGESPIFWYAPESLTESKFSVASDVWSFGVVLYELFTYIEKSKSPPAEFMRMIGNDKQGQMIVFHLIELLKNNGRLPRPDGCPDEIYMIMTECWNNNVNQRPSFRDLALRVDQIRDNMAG
# FGFR3, sequence (P22607 whole entry, looked up): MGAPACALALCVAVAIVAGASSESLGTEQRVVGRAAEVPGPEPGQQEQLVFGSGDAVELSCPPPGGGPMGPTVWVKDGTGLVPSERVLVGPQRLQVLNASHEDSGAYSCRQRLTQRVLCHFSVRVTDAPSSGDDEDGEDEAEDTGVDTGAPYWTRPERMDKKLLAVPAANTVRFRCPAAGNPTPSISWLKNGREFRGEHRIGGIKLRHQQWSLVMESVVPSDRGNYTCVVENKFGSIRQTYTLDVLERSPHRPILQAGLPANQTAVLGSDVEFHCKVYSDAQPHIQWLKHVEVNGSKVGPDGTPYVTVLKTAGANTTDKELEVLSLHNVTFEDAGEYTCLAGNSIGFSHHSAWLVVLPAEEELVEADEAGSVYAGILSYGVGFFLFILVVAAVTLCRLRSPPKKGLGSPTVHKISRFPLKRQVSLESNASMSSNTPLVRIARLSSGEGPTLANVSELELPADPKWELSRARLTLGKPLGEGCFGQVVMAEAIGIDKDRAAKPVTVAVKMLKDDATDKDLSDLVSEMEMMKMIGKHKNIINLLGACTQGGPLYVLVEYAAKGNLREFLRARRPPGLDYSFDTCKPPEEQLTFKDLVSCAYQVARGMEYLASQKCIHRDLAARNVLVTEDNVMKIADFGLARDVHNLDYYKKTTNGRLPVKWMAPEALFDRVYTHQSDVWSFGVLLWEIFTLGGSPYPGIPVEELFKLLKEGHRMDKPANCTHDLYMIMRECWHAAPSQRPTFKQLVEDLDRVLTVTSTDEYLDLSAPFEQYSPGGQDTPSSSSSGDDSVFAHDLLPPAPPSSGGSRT
# EPHB1, sequence (P54762 whole entry, looked up): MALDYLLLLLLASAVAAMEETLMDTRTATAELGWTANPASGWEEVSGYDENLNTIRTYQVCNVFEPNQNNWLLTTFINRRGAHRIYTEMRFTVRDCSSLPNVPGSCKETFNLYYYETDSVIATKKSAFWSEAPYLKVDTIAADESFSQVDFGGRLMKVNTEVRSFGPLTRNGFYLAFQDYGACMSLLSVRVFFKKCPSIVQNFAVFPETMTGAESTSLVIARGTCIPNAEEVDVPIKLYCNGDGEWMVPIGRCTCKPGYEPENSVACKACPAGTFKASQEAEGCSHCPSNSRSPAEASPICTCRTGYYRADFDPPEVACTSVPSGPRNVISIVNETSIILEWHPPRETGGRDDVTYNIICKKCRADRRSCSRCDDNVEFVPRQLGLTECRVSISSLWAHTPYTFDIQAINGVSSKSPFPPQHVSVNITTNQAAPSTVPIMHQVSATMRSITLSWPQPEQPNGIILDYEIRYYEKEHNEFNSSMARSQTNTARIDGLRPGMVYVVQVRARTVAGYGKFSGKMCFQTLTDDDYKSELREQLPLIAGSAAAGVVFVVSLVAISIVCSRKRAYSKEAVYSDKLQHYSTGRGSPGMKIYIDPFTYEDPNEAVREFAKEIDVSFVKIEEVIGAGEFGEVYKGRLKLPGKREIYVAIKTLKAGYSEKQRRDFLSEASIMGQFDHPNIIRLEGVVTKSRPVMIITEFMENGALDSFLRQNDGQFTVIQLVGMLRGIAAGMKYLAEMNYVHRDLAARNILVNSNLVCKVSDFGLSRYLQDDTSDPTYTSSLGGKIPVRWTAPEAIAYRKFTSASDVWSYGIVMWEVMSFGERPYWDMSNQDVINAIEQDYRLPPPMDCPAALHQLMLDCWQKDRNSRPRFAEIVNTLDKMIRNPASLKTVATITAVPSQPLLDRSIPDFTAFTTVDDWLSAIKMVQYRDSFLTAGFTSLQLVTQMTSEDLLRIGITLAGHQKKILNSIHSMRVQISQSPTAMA
# Fyn, sequence (P06241 whole entry, looked up): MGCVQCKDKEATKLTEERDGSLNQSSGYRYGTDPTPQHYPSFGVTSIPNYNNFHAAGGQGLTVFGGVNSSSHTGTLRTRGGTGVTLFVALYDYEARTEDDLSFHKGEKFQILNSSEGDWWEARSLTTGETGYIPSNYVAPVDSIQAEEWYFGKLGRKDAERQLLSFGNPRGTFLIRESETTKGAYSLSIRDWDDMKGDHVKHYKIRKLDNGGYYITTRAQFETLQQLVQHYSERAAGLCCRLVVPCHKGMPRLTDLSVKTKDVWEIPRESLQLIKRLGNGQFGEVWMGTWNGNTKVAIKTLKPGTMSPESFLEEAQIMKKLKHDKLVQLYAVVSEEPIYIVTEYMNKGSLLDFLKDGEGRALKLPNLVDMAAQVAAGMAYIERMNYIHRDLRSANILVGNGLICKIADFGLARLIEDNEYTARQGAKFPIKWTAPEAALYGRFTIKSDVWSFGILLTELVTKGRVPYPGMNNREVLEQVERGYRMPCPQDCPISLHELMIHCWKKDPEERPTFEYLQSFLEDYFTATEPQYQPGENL
# Grb2 SH2, sequence (P62993 whole entry, looked up): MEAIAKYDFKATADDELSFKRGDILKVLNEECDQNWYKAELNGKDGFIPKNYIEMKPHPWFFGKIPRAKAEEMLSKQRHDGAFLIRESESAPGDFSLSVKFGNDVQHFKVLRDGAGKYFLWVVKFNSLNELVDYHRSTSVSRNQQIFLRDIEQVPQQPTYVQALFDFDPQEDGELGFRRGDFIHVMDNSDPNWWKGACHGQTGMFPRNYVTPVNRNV
# FGFR1, sequence (P11362 whole entry, looked up): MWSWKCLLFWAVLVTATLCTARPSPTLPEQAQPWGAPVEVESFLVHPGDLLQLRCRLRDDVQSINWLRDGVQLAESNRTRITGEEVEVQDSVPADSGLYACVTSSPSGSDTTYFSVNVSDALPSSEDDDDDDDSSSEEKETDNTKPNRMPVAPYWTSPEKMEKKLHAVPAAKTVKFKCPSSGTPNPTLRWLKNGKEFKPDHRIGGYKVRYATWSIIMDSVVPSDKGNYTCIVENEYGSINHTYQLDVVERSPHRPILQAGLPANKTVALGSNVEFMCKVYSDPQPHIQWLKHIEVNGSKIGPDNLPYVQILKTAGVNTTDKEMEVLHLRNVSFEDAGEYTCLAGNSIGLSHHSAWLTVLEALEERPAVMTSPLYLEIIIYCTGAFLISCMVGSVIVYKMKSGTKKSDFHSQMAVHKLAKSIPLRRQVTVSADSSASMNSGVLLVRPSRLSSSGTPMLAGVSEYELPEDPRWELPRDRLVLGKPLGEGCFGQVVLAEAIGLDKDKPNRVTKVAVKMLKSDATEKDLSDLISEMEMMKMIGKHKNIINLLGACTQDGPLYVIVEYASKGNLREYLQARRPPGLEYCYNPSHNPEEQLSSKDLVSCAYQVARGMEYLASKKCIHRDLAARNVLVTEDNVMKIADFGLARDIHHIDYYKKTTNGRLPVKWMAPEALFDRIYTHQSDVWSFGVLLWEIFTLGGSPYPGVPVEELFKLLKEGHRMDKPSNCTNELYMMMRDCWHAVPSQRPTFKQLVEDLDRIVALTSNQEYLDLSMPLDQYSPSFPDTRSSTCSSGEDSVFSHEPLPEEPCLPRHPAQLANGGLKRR
# Hck, sequence (P08631 whole entry, looked up): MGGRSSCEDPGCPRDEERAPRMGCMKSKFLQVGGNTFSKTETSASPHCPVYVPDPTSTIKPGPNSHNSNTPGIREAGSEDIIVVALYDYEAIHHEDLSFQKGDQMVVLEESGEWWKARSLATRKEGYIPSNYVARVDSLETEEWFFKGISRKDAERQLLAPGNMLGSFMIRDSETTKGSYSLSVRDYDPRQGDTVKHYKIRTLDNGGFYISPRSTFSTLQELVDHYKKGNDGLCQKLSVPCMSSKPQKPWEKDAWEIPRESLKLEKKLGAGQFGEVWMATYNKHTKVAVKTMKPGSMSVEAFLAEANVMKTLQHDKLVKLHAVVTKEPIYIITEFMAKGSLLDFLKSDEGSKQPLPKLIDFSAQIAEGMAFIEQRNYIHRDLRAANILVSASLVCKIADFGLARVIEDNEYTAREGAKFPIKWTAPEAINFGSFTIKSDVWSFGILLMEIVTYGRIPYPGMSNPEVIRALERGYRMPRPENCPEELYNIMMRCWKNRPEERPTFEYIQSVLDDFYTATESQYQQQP
Sequence,phosphorylation enrichment [1],phosphorylation enrichment [2],phosphorylation enrichment [3],phosphorylation enrichment [4],phosphorylation enrichment [5],phosphorylation enrichment [6],phosphorylation enrichment [7],phosphorylation enrichment [8],phosphorylation enrichment [9],phosphorylation enrichment [10],phosphorylation enrichment [11],phosphorylation enrichment [12],phosphorylation enrichment [13],SH2 binding enrichment [14],SH2 binding enrichment [15],SH2 binding enrichment [16]
GPQGVYSNKLV [PTPN14_Y506],0.472,0.407,0.633,0.568,0.636,0.417,0.519,0.544,0.588,0.537,0.642,0.502,0.51,0.654,0.536,0.724
GQDLLYEDEDL [PACS1_Y303_F302L],0.559,2.38,0.674,1.6,0.613,0.812,0.595,1.18,0.626,0.855,1.43,0.733,0.889,0.8,0.505,0.632
GREFIYVDPMQ [PDGFRA_Y574_H570R_YF],7.2,0.589,0.906,1.03,1.36,3.28,2,0.703,1.2,3.31,0.729,5.79,4.31,1.08,0.524,0.596
GRQGIYTKNER [GPR143_Y231_E233K],0.447,0.556,0.386,0.422,0.327,0.357,0.359,0.46,0.327,0.422,0.466,0.329,0.371,1.01,0.493,0.802
GSRGKYSSGFR [ATM_Y332],0.657,0.793,0.38,0.512,0.649,0.318,0.559,0.62,0.338,0.547,0.603,0.36,0.453,1.15,0.833,0.912
GTHCHYKAPIV [FZD9_Y569_T573I],0.531,0.58,0.428,1.32,0.395,0.513,0.4,0.658,0.544,3.44,0.858,0.532,0.636,0.995,0.953,0.953
GTQCSYLLSRK [UGT3A1_Y123],0.482,0.43,0.329,0.634,0.42,0.427,0.436,0.655,0.392,0.569,0.676,0.554,0.441,1.03,0.704,0.833
GVASDYKCVDP [VPS13B_Y1991_I1994V],0.533,0.548,0.504,1.05,0.458,0.624,0.476,0.964,0.537,0.791,1.16,0.62,0.821,0.845,0.622,0.631
GVVVPYEPPEV [TP53_Y220_S215G],0.39,0.563,0.366,0.892,0.352,0.493,0.387,1.25,0.41,0.695,0.905,0.559,0.581,0.614,0.575,0.636
HDRNTYEKFLE [TF_Y666_G671E_YF],0.432,0.56,0.741,1.07,0.818,0.525,0.848,0.859,0.491,0.561,1.03,0.64,0.522,0.972,3.06,0.639
HEGKIYEYNQV [ZNF665_Y162],0.746,18.4,3.02,1.98,4.23,1.06,6.51,1.39,2.04,5.38,1.56,0.987,0.81,1.18,2.25,0.672
HFGCVYFGTLL [MET_Y1093_H1094Y_YF],1.01,0.458,0.899,1.77,3.7,0.917,0.528,1.18,0.763,0.695,1.23,0.699,1.51,0.857,0.535,0.714
HFVDEYDLTIE [KRAS_Y32_P34L],0.752,0.841,0.811,2.56,0.922,0.711,0.812,2.13,0.749,1.4,2.16,0.423,1.14,0.874,0.633,0.847
HGEAFYSEVKP [PAK5_Y182_YF],3.57,12.3,2.95,1,2.27,2.01,9.01,0.609,4.38,1.02,1.04,1.37,2.49,0.887,1.22,0.868
HICTAYELVLA [DHCR24_Y190],3.12,8.27,0.598,1.8,2.77,0.891,1.56,1.6,0.779,1.13,1.74,1.02,2.2,1.01,0.573,0.708
